Assay results as given in publication PMC5387307, “Diversification of the kinetic properties of yeast NADP‐glutamate‐dehydrogenase isozymes proceeds independently of their evolutionary origin” (MicrobiologyOpen, 2016).
Where two headings read alike, the source gives them in different places.

B1: ScGdh1 (Saccharomyces cerevisiae S288C) (protein)
chain: SEPEFQQAYEEVVSSLEDSTLFEQHPEYRKVLPIVSVPERIIQFRVTWENDKGEQEVAQGYRVQYNSAKGPYKGGLRFHPSVNLSILKFLGFEQIFKNSLTGLDMGGGKGGLCVDLKGRSNNEIRRICYAFMRELSRHIGQDTDVPAGDIGVGGREIGYLFGAYRSYKNSWEGVLTGKGLNWGGSLIRPEATGYGLVYYTQAMIDYATNGKESFEGKRVTISGSGNVAQYAALKVIELGGTVVSLSDSKGCIISETGITSEQVADISSAKVNFKSLEQIVNEYSTFSENKVQYIAGARPWTHVQKVDIALPCATQNEVSGEEAKALVAQGVKFIAEGSNMGSTPEAIAVFETARSTATGPSEAVWYGPPKAANLGGVAVSGLEMAQNSQRITWTSERVDQELKRIMINCFNECIDYAKKYTKDGKVLPSLVKGANIASFIKVSDAMFDQGDVF
notes: full-length ORF in pET-28a(+), His-tagged, expressed in E. coli BL21, Ni-NTA purified; monomer 53 kD apparent
B2: ScGdh3 (Saccharomyces cerevisiae S288C) (protein)
chain: MTSEPEFQQAYDEIVSSVEDSKIFEKFPQYKKVLPIVSVPERIIQFRVTWENDNGEQEVAQGYRVQFNSAKGPYKGGLRFHPSVNLSILKFLGFEQIFKNALTGLDMGGGKGGLCVDLKGKSDNEIRRICYAFMRELSRHIGKDTDVPAGDIGVGGREIGYLFGAYRSYKNSWEGVLTGKGLNWGGSLIRPEATGFGLVYYTQAMIDYATNGKESFEGKRVTISGSGNVAQYAALKVIELGGIVVSLSDSKGCIISETGITSEQIHDIASAKIRFKSLEEIVDEYSTFSESKMKYVAGARPWTHVSNVDIALPCATQNEVSGDEAKALVASGVKFVAEGANMGSTPEAISVFETARSTATNAKDAVWFGPPKAANLGGVAVSGLEMAQNSQKVTWTAERVDQELKKIMINCFNDCIQAAQEYSTEKNTNTLPSLVKGANIASFVMVADAMLDQGDVF
notes: full-length ORF in pET-28a(+), His-tagged, expressed in E. coli BL21, Ni-NTA purified; monomer 55 kD apparent; glutamate IC50: native enzyme in Scgdh1 deletion strain extract

Experiments:
[1] = tested on: T1, LkGdh1; assay: NADPH absorbance at […] nm, reductive amination; format: biochemical, Lachancea kluyveri; conditions: 100 mmol/L Tris pH 7.5, 30°C
T1 construct: gene GDH1; full-length ORF in pET-28a(+), His-tagged, expressed in E. coli BL21, Ni-NTA purified; monomer 54 kD apparent; glutamate IC50: native enzyme in WT extract

[2] = substrate: N; assay: purified protein; conditions: 8 mmol/L α-KG, 250 μmol/L NADPH, 100 mmol/L Tris pH 7.5, 30°C
[3] = substrate: NC(=O)C1=CN([C@@H]2O[C@H](COP(=O)(O)OP(=O)(O)OC[C@H]3O[C@@H](n4cnc5c(N)ncnc54)[C@H](OP(=O)(O)O)[C@@H]3O)[C@@H](O)[C@H]2O)C=CC1; assay: purified protein; format: biochemical, Saccharomyces cerevisiae; conditions: 8 mmol/L α-KG, 100 mmol/L ammonium chloride, 100 mmol/L Tris pH 7.5, 30°C
[4] = substrate: O=C(O)CCC(=O)C(=O)O; assay: purified protein; format: biochemical, Saccharomyces cerevisiae; conditions: 250 μmol/L NADPH, 100 mmol/L ammonium chloride, 100 mmol/L Tris pH 7.5, 30°C

Molecule | Km [2] [µM] | kcat [2] [s⁻¹] | Km [3] [µM] | kcat [3] [s⁻¹] | Km [4] [µM] | kcat [4] [s⁻¹] | further results
NC(=O)C1=CN([C@@H]2O[C@H](COP(=O)(O)OP(=O)(O)OC[C@H]3O[C@@H](n4cnc5c(N)ncnc54)[C@H](OP(=O)(O)O)[C@@H]3O)[C@@H](O)[C@H]2O)C=CC1 [NADPH] |  |  |  |  |  |  | Km ([1]; 8 mmol/L α-KG, 100 mmol/L ammonium chloride, read-out: pH 7.5 / K m-NADPH): 46 µM
O=C(O)CCC(=O)C(=O)O [α-KG] |  |  |  |  |  |  | Km ([1]; 250 μmol/L NADPH, 100 mmol/L ammonium chloride, read-out: pH 7.5 / K m-α-KG): 460 µM
N [NH4+] |  |  |  |  |  |  | Km ([1]; 8 mmol/L α-KG, 250 μmol/L NADPH, read-out: pH 7.5 / K m-NH4+): 7400 µM
B1 | 8600 | 13 | 45 | 13 | 370 | 13 | 
B2 | 6900 | 14 | 42 | 14 | 400 | 14 | 
